Test results reported in patent US20060233822A1 (YANG SHENG TANG, published 2006).

Legend:
7-peptide MLWGPSD = test: phage display panning on coated MAb; 1 clone
7-peptide GGWGPFA = test: phage display panning on coated MAb; 1 clone
7-peptide TNLRLDS = test: phage display panning on coated MAb; 1 clone
7-peptide ALWGPTS = test: phage display panning on coated MAb; 1 clone
7-peptide QPATWNT = test: phage display panning on coated MAb; 1 clone
NE2 mutant 600VE = biological target: T1, NE2 mutant 600VE (hepatitis E virus, UniProt P29326 394-599); test: Western blot of NE2 mutant proteins with monoclonal antibody 16D7
T1 construct: position counted on HEV ORF2
T1 chain: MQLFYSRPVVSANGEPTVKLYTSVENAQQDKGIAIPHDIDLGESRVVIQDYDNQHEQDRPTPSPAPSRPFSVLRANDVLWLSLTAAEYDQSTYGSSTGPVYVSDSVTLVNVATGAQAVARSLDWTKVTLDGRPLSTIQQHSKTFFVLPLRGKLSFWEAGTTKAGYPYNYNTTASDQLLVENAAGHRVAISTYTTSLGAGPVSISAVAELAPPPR

NE2 mutant 598VE = biological target: T2, NE2 mutant 598VE (hepatitis E virus, UniProt P29326 394-603); test: as above
T2 construct: position counted on HEV ORF2
T2 chain: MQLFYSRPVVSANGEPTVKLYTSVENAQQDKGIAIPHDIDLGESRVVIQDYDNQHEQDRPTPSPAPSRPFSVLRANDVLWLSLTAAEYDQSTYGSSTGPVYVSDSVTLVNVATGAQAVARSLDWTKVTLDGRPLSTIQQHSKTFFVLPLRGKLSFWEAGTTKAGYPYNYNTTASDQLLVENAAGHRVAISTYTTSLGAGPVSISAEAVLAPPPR

NE2 mutant 601LK = biological target: T3, NE2 mutant 601LK (hepatitis E virus, UniProt P29326 394-600); test: as above
T3 construct: position counted on HEV ORF2
T3 chain: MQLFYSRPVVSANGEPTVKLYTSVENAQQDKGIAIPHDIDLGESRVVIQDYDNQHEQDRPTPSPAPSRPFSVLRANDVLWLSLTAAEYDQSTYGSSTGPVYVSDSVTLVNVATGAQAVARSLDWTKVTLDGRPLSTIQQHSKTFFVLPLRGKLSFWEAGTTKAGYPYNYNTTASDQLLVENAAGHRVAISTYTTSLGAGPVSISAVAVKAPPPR

NE2 mutant 597AE = biological target: T4, NE2 mutant 597AE (hepatitis E virus, UniProt P29326 394-603); test: as above
T4 construct: position counted on HEV ORF2
T4 chain: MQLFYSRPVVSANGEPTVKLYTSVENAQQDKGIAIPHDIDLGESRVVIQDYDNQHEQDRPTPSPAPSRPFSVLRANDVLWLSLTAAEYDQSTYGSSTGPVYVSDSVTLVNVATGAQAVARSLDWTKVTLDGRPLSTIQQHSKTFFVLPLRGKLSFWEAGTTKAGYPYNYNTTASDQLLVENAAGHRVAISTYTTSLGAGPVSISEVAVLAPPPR

NE2 mutant 599AE = biological target: T5, NE2 mutant 599AE (hepatitis E virus, UniProt P29326 394-603); test: as above
T5 construct: position counted on HEV ORF2
T5 chain: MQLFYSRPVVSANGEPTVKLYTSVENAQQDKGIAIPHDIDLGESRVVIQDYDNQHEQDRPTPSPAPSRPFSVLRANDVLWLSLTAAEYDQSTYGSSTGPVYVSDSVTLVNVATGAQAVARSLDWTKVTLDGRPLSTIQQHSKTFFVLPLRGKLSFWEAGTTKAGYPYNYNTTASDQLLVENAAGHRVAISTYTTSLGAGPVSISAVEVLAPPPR

7-peptide YQDSAKT = test: phage display panning on coated MAb; 3 clones

Measured: binding result

B1: monoclonal antibody 16D7 (antibody, V domains shown)
VH: EVQLQQSGPELVKPGASVKMSCKASGYKFTSYVMHWVKQKPGQGLEWIGYINPSNDNIKYNEKFKGKAILTLDKSSSTAYMAFSSLTSEDSAVYYCATLTGVDYWGQGTTLTVSS
VL: DVVMTQTPLSLSVTIGQPASISCKSSQSLLYRNGKIYLNWLQQRPGQAPKHLMSQVSKLDPGIPDRFSGSGSETDFTLKISRVEAEDLGVYYCLQGTHYPYTFGGGTKLEIKR
notes: also called MAb 16D7; HRP-16D7
binds: all assays above
